In US20240318135A1:

Assays:
[1] = molecular target: MART-1 peptide on HLA-A*02:01 (human); assay: NFAT-eGFP in TnT-TCR cells after overnight co-culture with peptide-pulsed T2 cells, FIG. 8C; full-length, on cells
[2] = molecular target: MART-1 peptide … presented by HLA*A0201 on T2 cells (human)
[3] = molecular target: HLA-A*0201-… MHC dextramer (human); assay: flow cytometry of TnT-TCR cells stained with fluorescently-labelled pMHC dextramer and anti-CD3
[4] = molecular target: HLA-A*0201-… MHC dextramer (human); assay: flow cytometry, serial dilutions of the target pMHC dextramer on TnT-TCR cells, pMHC-dex+ cells (% of max), three-parameter fit, n=3; the concentration is that of the dextramer
[5] = molecular target: NY-ESO-1 peptide … presented by HLA*A0201 on T2 cells (human)
[6] = molecular target: MART-1 peptide … presented by HLA*A0201 on T2 cells (human); assay: cell-based or functional assay
[7] = molecular target: HLA-A*0201-… MHC dextramer (human); assay: flow cytometry, serial dilutions of pMHC dextramer on TnT-TCR cells; EC50 of normalized dextramer saturation curves

difference of peptide EC50 between DMF4 and DMF5 [1] [fold]	EC50 (peptide concentration for half-maximal GFP+ cells, NFAT-GFP reporter) [2] [nM]	Q2 (percent of cells CD3+ and [..] pMHC dex+) (% (unit not given)) [3]	EC50 [4] [nM]	EC50 (peptide concentration for half-maximal GFP+ cells, NFAT-GFP reporter) [5] [nM]	fold difference in functional EC50 between DMF4 and DMF5 [6] [fold]	fold lower EC50 than DMF4 [7] [fold]	Substance
< 2							DMF5
	14.2	48	0.267				TCR DMF4
		96.1	0.0568	167			TCR 1G4
	8.13	99.1	0.00692		< 2	39	TCR DMF5
